# T1: Pro-(X)-BMP-10 S385G, O95393
# T1 chain: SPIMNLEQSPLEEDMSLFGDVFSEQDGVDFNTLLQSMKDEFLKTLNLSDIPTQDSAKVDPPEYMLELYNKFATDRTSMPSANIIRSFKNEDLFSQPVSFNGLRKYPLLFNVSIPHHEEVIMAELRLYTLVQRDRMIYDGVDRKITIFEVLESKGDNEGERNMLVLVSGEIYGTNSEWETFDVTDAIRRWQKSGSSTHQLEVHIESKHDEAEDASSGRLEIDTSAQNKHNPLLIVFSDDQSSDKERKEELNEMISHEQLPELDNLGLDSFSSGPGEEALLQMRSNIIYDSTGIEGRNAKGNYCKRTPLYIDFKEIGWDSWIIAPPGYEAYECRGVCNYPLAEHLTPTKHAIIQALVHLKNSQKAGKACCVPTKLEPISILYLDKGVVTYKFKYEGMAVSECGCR
# T2: Pro-(X)-BMP-10 S385G, R353K, O95393
# T2 chain: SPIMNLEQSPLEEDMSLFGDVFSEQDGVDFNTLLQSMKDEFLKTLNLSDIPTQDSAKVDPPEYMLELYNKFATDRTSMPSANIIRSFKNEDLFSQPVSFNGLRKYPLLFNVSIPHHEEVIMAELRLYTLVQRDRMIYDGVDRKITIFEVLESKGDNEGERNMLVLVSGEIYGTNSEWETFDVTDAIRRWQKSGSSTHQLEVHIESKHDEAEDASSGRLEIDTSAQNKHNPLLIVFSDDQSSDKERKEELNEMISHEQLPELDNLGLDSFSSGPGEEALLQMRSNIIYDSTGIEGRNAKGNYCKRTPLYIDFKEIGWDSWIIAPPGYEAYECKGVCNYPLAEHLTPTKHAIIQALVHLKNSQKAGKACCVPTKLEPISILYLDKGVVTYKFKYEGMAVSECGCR
# Target: T1, Pro-(X)-BMP-10 S385G, O95393
# Assay: SDS-PAGE densitometry after IMAC purification
# Conditions: chain shown with the change
row,Binder,other: dimer over monomer ratio
1,"Pro-(X)-BMP-10, O95393 S385G (protein) SPIMNLEQSPLEEDMSLFGDVFSEQDGVDFNTLLQSMKDEFLKTLNLSDIPTQDSAKVDPPEYMLELYNKFATDRTSMPSANIIRSFKNEDLFSQPVSFNGLRKYPLLFNVSIPHHEEVIMAELRLYTLVQRDRMIYDGVDRKITIFEVLESKGDNEGERNMLVLVSGEIYGTNSEWETFDVTDAIRRWQKSGSSTHQLEVHIESKHDEAEDASSGRLEIDTSAQNKHNPLLIVFSDDQSSDKERKEELNEMISHEQLPELDNLGLDSFSSGPGEEALLQMRSNIIYDSTGIEGRNAKGNYCKRTPLYIDFKEIGWDSWIIAPPGYEAYECRGVCNYPLAEHLTPTKHAIIQALVHLKNSQKAGKACCVPTKLEPISILYLDKGVVTYKFKYEGMAVSECGCR",0.42

# Target: T2, Pro-(X)-BMP-10 S385G, R353K, O95393
# Assay: SDS-PAGE densitometry after IMAC purification
# Conditions: chain shown with the change
row,Binder,other: dimer over monomer ratio
1,"Pro-(X)-BMP-10, O95393 S385G; R353K (protein) SPIMNLEQSPLEEDMSLFGDVFSEQDGVDFNTLLQSMKDEFLKTLNLSDIPTQDSAKVDPPEYMLELYNKFATDRTSMPSANIIRSFKNEDLFSQPVSFNGLRKYPLLFNVSIPHHEEVIMAELRLYTLVQRDRMIYDGVDRKITIFEVLESKGDNEGERNMLVLVSGEIYGTNSEWETFDVTDAIRRWQKSGSSTHQLEVHIESKHDEAEDASSGRLEIDTSAQNKHNPLLIVFSDDQSSDKERKEELNEMISHEQLPELDNLGLDSFSSGPGEEALLQMRSNIIYDSTGIEGRNAKGNYCKRTPLYIDFKEIGWDSWIIAPPGYEAYECKGVCNYPLAEHLTPTKHAIIQALVHLKNSQKAGKACCVPTKLEPISILYLDKGVVTYKFKYEGMAVSECGCR",0.41

# Target: the molecule itself
# Assay: crystal structure; purified BMP-9 dimers at acidic pH: wild type 0.3 M sodium citrate pH 3.5; mutants 0.1 M acetic acid pH 4
# Conditions: not given
row,Binder,binding result
1,"BMP-9 G389S dimer (ligand, human, UniProt Q9UK05 320-429, looked up, interchain disulfide at Cys-392, human BMP-9 growth factor domain from a mutant of Pro-(X)-BMP-9 (proBMP9 residues 23-429, A321S, RRKR replaced by IEGR); numbers count on the precursor; Rows of m3 with m3 mean the two chains of the dimer; source: expi293 (suspension HEK293), mutant of Pro-(X)-BMP-9; purified dimer) SSGAGSHCQKTSLRVNFEDIGWDSWIIAPKEYEAYECKGGCFFPLADDVTPTKHAIVQTLVHLKFPTKVSKACCVPTKLSPISVLYKDDMGVPTLKYHYEGMSVAECGCR",binds
2,"BMP-9 G389S, K357R dimer (ligand, human, UniProt Q9UK05 320-429, looked up, interchain disulfide at Cys-392, human BMP-9 growth factor domain from a mutant of Pro-(X)-BMP-9 (proBMP9 residues 23-429, A321S, RRKR replaced by IEGR); numbers count on the precursor; Rows of m4 with m4 mean the two chains of the dimer; also called BMP-9 double-mutant; source: expi293 (suspension HEK293), mutant of Pro-(X)-BMP-9; purified dimer) SSGAGSHCQKTSLRVNFEDIGWDSWIIAPKEYEAYECRGGCFFPLADDVTPTKHAIVQTLVHLKFPTKVSKACCVPTKLSPISVLYKDDMGVPTLKYHYEGMSVAECGCR",binds

# Target: the molecule itself
# Assay: non-reducing SDS-PAGE after IMAC, with densitometry; His-tagged pro-proteins purified from expi293 conditioned medium by IMAC, run non-reduced and reduced; shows the disulfide-linked dimer beside the monomer; bands quantified with ImageJ
# Conditions: not given
row,Binder,binding result
1,"Pro-(fr)-TGF-β2 (natural protein, human, UniProt P61812-1 19-414, looked up, human proTGFβ2 residues 19-414; Behind the mouse Ig signal peptide and the His tag, no processing site after the tag; Furin processing incomplete; also called Pro-TGF-β2; source: expi293 (suspension HEK293), secreted; purified from conditioned medium by the histidine tag; not shown: 8xHis, N-terminal, kept) LSLSTSSTLDMDQFMRKRIEAIRGQILSKLKLTSPPEDYPEPEEVPPEVISIYNSTRDLLQEKASRRAAACERERSDEEYYAKEVYKIDMPPFFPSENAIPPTFYRPYFRIVRFDVSAMEKNASNLVKAEFRVFRLQNPKARVAEQRIELYQILKSKDLTSPTQRYIDSKVVKTRAEGEWLSFDVTDAVHEWLHHKDRNLGFKISLHCPCCTFVPSNNYIIPNKSEELEARFAGIDGTSTYTSGDQKTIKSTRKKNSGKTPHLLLMLLPSYRLESQQTNRRKKRALDAAYCFRNVQDNCCLRPLYIDFKRDLGWKWIHEPKGYNANFCAGACPYLWSSDTQHSRVLSLYNTINPEASASPCCVSQDLEPLTILYYIGKTPKIEQLSNMIVKSCKCS",binds
2,"Pro-(fr)-BMP-10 (natural protein, human, UniProt O95393 22-424, looked up, human proBMP10 residues 22-424 with the natural furin site; secreted partially processed; Partly cut by furin into prodomain and growth factor; also called Pro-BMP-10 with unmodified furin processing site; wild-type BMP-10; source: expi293 (suspension HEK293), secreted; purified by IMAC; not shown: 8xHis, N-terminal, kept) SPIMNLEQSPLEEDMSLFGDVFSEQDGVDFNTLLQSMKDEFLKTLNLSDIPTQDSAKVDPPEYMLELYNKFATDRTSMPSANIIRSFKNEDLFSQPVSFNGLRKYPLLFNVSIPHHEEVIMAELRLYTLVQRDRMIYDGVDRKITIFEVLESKGDNEGERNMLVLVSGEIYGTNSEWETFDVTDAIRRWQKSGSSTHQLEVHIESKHDEAEDASSGRLEIDTSAQNKHNPLLIVFSDDQSSDKERKEELNEMISHEQLPELDNLGLDSFSSGPGEEALLQMRSNIIYDSTARIRRNAKGNYCKRTPLYIDFKEIGWDSWIIAPPGYEAYECRGVCNYPLAEHLTPTKHAIIQALVHLKNSQKASKACCVPTKLEPISILYLDKGVVTYKFKYEGMAVSECGCR",binds
